Experimental data reported in the Human Domainome abundance scans (Beltran et al. 2025).

B1: Calcium-binding protein 2, residues 155 to 219; numbered along this chain, Q9NPB3 (parent)
chain: RELRDAFREFDTNGDGRISVGELRAALKALLGERLSQREVDEILQDVDLNGDGLVDFEEFVRMMS

Variants of: B1
Assay: abundance fitness (aPCA) (normalised: wild type 0, dead -1); higher = more abundant; growth selection in yeast, the domain comes from the species named
Settings: Homo sapiens

Abundance fitness of substitutions, site by site:
D46: I -0.408; H -0.366; N -0.2; E -0.155; L -0.326; M -0.42; Q -0.152
V47: F -0.15; N -0.211; C -0.241; I -0.204; A -0.143; Q 0.013; T -0.041; H 0.057; W -0.199; D -0.236; E -0.137; P -0.394; M -0.303; Y -0.01; K -0.064; L -0.475
L35: M -0.399; F -0.257; Y 0.015; H 0.061; C -0.113; N 0.091; A 0.1; I 0.087; K 0.244; P -0.02; G 0.088; R 0.096; E -0.109; D 0.064; Q 0.043; W 0.045; V -0.015; T 0.028; S -0.031
Q37: E 0.06; C -0.533; W -0.031; T 0.021; A 0.003; R -0.087; G -0.072; K 0.022; S -0.104; D -0.351; L -0.017; P 0.266; M -0.278; H -0.504; N 0.221
S36: G -0.093; L 0.025; T 0.012; K 0.047; V 0.07; I 0; R -0.004; Q 0.047; N -0.197; P -0.107; H -0.564; W -0.177; Y -0.263; M -0.092; E 0.024; A 0.041; F -0.085
Q45: F -0.263; L 0.015; T 0.003; K -0.215; W -0.109; Y -0.16; S -0.147; A -0.069; V -0.108; P -0.133; G -0.19; H -0.013; R 0.054; D -0.144; I -0.01; E -0.076; M -0.141
A29: W -0.034; Q -0.04; R 0.047; Y -0.214; T -0.023; N -0.438; P -0.497; S -0.02; V -0.27
D41: I -0.184; T -0.104; A -0.151; R -0.15; C -0.059; N -0.506; Y 0.03; Q -0.365; L -0.305; P -0.221; W -0.158; G -0.162; H -0.437; E -0.077; K -0.095; M -0.302; V -0.237
V40: D 0.043; C -0.086; G -0.055; S -0.011; W 0.041; K -0.04; Q 0.063; M 0.048; R 0.108; E 0.169; Y -0.117; T -0.187; A 0.006; I 0.047; F -0.086; H 0.038
R38: S 0.001; Y -0.114; V -0.021; F -0.104; M -0.112; E -0.232; K -0.67; D 0.1; A 0.001; T -0.052; I 0.03; N 0.085; W -0.107; P -0.056; G 0.014; L -0.053; Q -0.212; C -0.079
G32: Y -0.269; K -0.206; R -0.258; P -0.026; V -0.429; E -0.522; T -0.526; F -0.275; S -0.453; C -0.514; N -0.246; D -0.29; M -0.567; I -0.438; L -0.64; W -0.282
